The nanobody polyreactivity screen of Harvey et al. (2022)

Test: yeast display, Sf9 membrane polyspecificity reagent, FACS + sequencing; frameworks hold sequencing errors
Method in brief: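 Nanobodies came from a synthetic yeast display library in Saccharomyces cerevisiae BJ5465, induced with galactose for 36–48 hours and stained for 1 hour at 4 °C with 10% biotinylated, detergent-solubilized Sf9 membrane reagent. Cells were enriched on streptavidin microbeads and then FACS-sorted, with low and high (top ~1%) gates set on anti-HA fluorescence for expression and streptavidin fluorescence for reagent binding. Each polyreactivity label reflects the gate a clone came from. Genes were amplified by colony PCR, sequenced by MiSeq 2 × 250 and filtered by CDR length.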

Sequence | polyreactivity (PSR sort gate)
QVQLVESGGGLVQAGGSLRLSCSASGFIFWYNAMGWYRQAPGKERELVAAITTAGSTNYADSVKGRFTISRDNAKNTVYLQMNSLKPEDTAVFYCNKVQLRNRYPYRYGFGDVGYWGQGTQVTVSS | low polyreactivity
QVQLVESGGGLVQAGGSLRLSCAASGIIFSYNAMGWYRQAPGKERELVAAITRRGTRTYYADSVKGRFTISRDNAKNTVYLQMNSLKPEDSAVYYCAADYVRPGTKYDYWGQGTQVTVSS | high polyreactivity
QVQLVESGGGLVQAGGSLRLSCAASGRIFTQYAMGWYRPPPGKERELVAAINASDGSTYADSVKGRFTISRDNAKNTVYLQMKSLKPEDTAVYYCNVTGGPYDFTRWSEFDHWGQGTQVTVSS | low polyreactivity
QVQLVESAGGLVQAGGSLRISCAASGIIFARYSMGWYRPAPGKERELVAAINSSGGDTYYADSVKGRFTISRDTANNTVYLQMISLKPEDPAVYYCAKVISYLVVLPRTERYEGDYWGQGTQVTVSS | low polyreactivity
QVQLVESGGGLVQAGGSLRLSCAASGRTFGKYAMGSYTQAPGKETELVAAISSSGGSTYYADSVKGRFTISRDNAKNTVYLQMNSVKPEDTAVYYCGARWSYRDDYWGQGTQVTVSS | high polyreactivity
QVQLVESGGGLVQAGGSLRLSCAASGSIFRTYAKGWYRQAPGKERELVATITFGGVSTYYADSVKGRFTISRDNAKNTVYLQMNSLKPEDTAVYYCAADVYTRFWRVYRFDYWGQGTQVTVSS | low polyreactivity
QVQLVESGGGLVQAGGSLRLSCAASGRTFPSYAKGLYRQAPGKERELVASISRGASTNYADSVMGRFTISRDNAKNCVFLQMNSLKPEDTAVYFWAANDSWVYTYYYWGQGTQVTVSS | high polyreactivity
QVQLVESGGGLVQAGGSLRLSCAASGSIFTYNTMGWYRQAPGKERELVAAISGRGGRTYYADSVKGRFTISRDNAKKTVYLQMNSLKPEDTAVYYCNARKYSQKIYGNYNYWGQGTQVTVSS | high polyreactivity
QVQLVESGGGLVQAGGSLRLSCAASGFIFDDYARGWYRQAPGKERELVADIDYSGGSRYYADSVKGRFTISRDNAKNPVYLQMTSLKPEETAVYYGTAYYGILYYLLDYWGQGTQVTVSS | high polyreactivity
QVQLVESGGGLVQAGGSLRLSCAASGSIFIGYAMGWYRQAPGKERELVAAITSAGSTYADSVKGRFTISRDNAKNTGYLQRNSVKPEDTAVYYCAARFFLVTLDYWGQGTQVTVSS | low polyreactivity
QVQLVESGGGLVQAGGSLRLSCAASGLTFGTYAMGWYRPAPGKERELVAAIRSGGSTNYADSVKGRFTISRDNAKNTVYLQMNSLKPEDTAVYYCAKRYYWDRYYYWGQGTQVTVSS | high polyreactivity
QVQLVESGGGLVQAGGSLRLSCAASGRTFRYNTMGWYRQAPGKERELVAALTYRGGRTYYADSVKGRFTISRDHAKNTVYLQMNSLKPEDTAVYYCARDYYGSVRFDHWGQGTQVTVSS | high polyreactivity
QVQLVESGGGLVQAGGSLRLSCAASGLIFYDNAMGWYRQAPGKERELVAAISWGGGTTYYADSVKGRFTISRDNAKNTVYLQMISLKPDDTAVYYCAAEEALFYDFYYVLLDYWGQGTQVTVSS | high polyreactivity
QVQLVESGGGLVQAGGSLRLSCAASGYILYPYAMGWYRQAPGKERELVAAIRQRGGSTYYADSVKGRFTISRDYAKNTVYLQMNSLKPEDTAVYYCAAYLSPKRALTRGYGYWGQGTQVTVSS | high polyreactivity
QVQLVESGGGLVQAGGSLRLSCAASGRTFYRNAMGWYRQAPGKERELVATITRGGSTNYADSVKGRFTISRDNAKNTVYLQMNSLKPEDTAVYYCAAAQPGTNAYRVGSWGQGTQVTVSS | high polyreactivity
QVQLQESGGGLVQAGGSLRLSCAASGYNSHADEMGWYRQAPGKEHELVASISNGGSTNYADSVKGRFTISRDNANNTVYLQMNSLKSEDTAVYYCADWTGEVDIHYYWGQGTQVTVSS | low polyreactivity

Sequence | polyreactivity (PSR sort gate)
QVQLVESGGGLVQAGGTLRLSCAPYGIILYRIGMGWYRQAPGKERELVAAISWSTGSTYYADSEKGRFTISRDNAKNTVYLQMNSLKPEDTAVYYCATDYGGYSFGMYYWGQGTQVTVSS | low polyreactivity
QVQLVESGGGLVQAGGSLRLSCADSGLTFGRNAMGWYRHAPGKERELVAAITFNGGSTYYADSVKGRFTISRDNAKNTVYLQMNSLKPEDTAVYYCSGRLWRRSRFDYWGQGTQVTVSS | high polyreactivity
QVQLVESGGGLVQAGGRLRLSCAASGSTFVWYAMVWYRQAPGKEREFVATISWSDGSTYYADSVKGRFTISRDNAKNTVYLQLNSLIPEDTAVYYCASDVDRFFTYKYDYWGQGTQVTVSS | low polyreactivity
QVQLVESGGGLVQAGGSLRLSCAASGFTFSRYAMGWYRQAPGKERELVAAITASGGTTYYADSVKGRFTISRDNAKNTVYLQMNSLKAEDTAVYYCNALYYYLYGYDYWGQGTQVTVSS | high polyreactivity
QVQLVESGGGLVQAGGSLRLSCAASGSTFRQYAMGWYRQAPGKERELVAAITWRGDNTYYADSVKGRFTISRDNAKNTVYLQMNSLKPEDTAVYYCAARWSYRLYWGYGYWGQGTQVTLSS | low polyreactivity
QVQLVESGGGLVQAGGSLRLSCAASGSIFRVYVMGWYRQAPGKERELVARIRYRSGRTNYADSVKGRFTISRDNAKNTVYLQMNSLKPEDTAVYYCSADVYWPTAGDYTQKRDYWGLGTQVTVSS | high polyreactivity
QVKLVESGGGIVQAGGSLRLSCAASGRIFYSNVMGWYRQAPGKERELVATISGSSGRTYADSVKGRFTISRDNAKNTVYLQMNSLKPEDTAVYYCAADSPSVWGYRYDYDYWGQGTQVTVSS | low polyreactivity
QVQLVESGGGLVQAGGSLRLSCAASGYTFATKVMGWYRQAPGKERELVATITGSGGSTYYADSVKGRLTISRDNAKNTVYLQMNSLTPEDTAVYNCAARLYGWYYGGYTRYDYWGQGTQVTVSS | high polyreactivity
QVQLVESGGGLVQAGVSLRLSCAASGRTFFPNAMGWYRQAPGKERELVAAITHSGGTTYYADSVKGRFTISRDNAKNTVYLQMNSLKPEDTAVYYCARGQPRYYNSAYGYWGLGTQVTVSS | high polyreactivity
QVQLVESGGGLVQAGCSLRLSCAASGFIFSRYTMGWYRQAPGKERELVAAISRRGGNTYYADSVKGRFTISRDNAKNTVYLQMNSLKPEDTAVYYCADEYNQSFDYWGQGTQVTVSS | low polyreactivity
QVQLVESGGGLVQAGGSLRLSCAASGSIFQPNAMGGGGQAPGKERELVASIRGRGGDTYYADSVKGRFTISRDNAKNTVYLQMNSLKPEDTAVYYCAADYRWGQGTQVTVSS | low polyreactivity
QVQLVESGGGLVQSGGSLRLSCAASGSTLSVYVMGWYRQAPGKERELVARIRSGGNTYYADSVKGRFTISRDNAKNTVYLLMNSLKPEDTAVYYCNADPSTGWYKYDYWGQGTQVTVSS | high polyreactivity
QVQLVESGGGLVQAGGSLRLSCAASGSIFYYYAMGWYRQAPGKERELVAAISSGGVRTYYADSVKGRFTISRDNAKNTVYLQMKSLKPEDTAVYYCAKDVHSGVTLIHERYYWGQGTQVTVSS | low polyreactivity
QVQLVESGGGLVQAGGSLRLSCAASGRTCYNTMGWYRQAPGKERELVAAISRGGITNYADSVKGRFTISRDSAKKTGYLQMNRLKPEDTAVYYCNAEPKRYYYYYKFDYWGQGTQVTVSS | high polyreactivity
QVQLVESGGGLVQAGGSLRLSCAASGFIFVKNAMGWYRQAPGKERELVATINCGSSTTYADSVKGRFTISRDNAKNTVYLQMNSLKPEDTAVYYCNADDVENWTEYDYWGQGTQVTVSS | low polyreactivity
QVQLVESGGGLVQAGGSLRLSCAASGFTYFQYAMGWYRQAPGKERELVAAITSGVSTNYADSVKGRFTISRDNAKNTVYLQMNSLKPEDTAVYYCAADPRYLQSWRGEFAGEYWGQGTQVTVSS | low polyreactivity
